Measurements reported in the supplement of paper PMC7877785.
± gives the uncertainty stated by the source.

Assay: self-splicing fitness, log relative to wild type (ln ratio); higher = more splicing; Tetrahymena group I intron in knt gene, E. coli kanamycin selection, DiMSum; sequences stand for … in CUCUCU…GGAGGGAAAAGUUAUCAGGCAUGCACCUGGUAGCUAGUCUUUAAACCAAUAGAUUGCAUCGGUUUAAAAGGCAAGACCGUCAAAUUGCGGGAAAGGGGUCAACAGCCGUUCAGUACCAAGUCUCAGGGGAAACUUUGAGAUGGCCUUGCAAAGGGUAUGGUAAUAAGCUGACGGACAUGGUCCUAACCACGCAGCCAAGUCCUAAGUCAACAGAUCUUCUGUUGAUAUGGAUGCAGUUCACAGACUAAAUGUCGGUCGGGGAAGAUGUAUUCUUCUCAUAAGAUAUAGUCGGACCUCUCCUUAAUGGGAGCUAGCGGAUGAAGUGAUGCAACACUGGAGCCGCUGGGAACUAAUUUGUAUGCGAAAGUAUAUUGAUUAGUUUUGGAGUACUCGUGGUCG
Outline: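 DiMSum derived fitness as the error-weighted combination of fold changes across replicates, kanamycin versus no kanamycin, normalised to wild type. E. coli BL21(DE3) held the library, which randomised all eight P1ex-region intron nucleotides within the knt kanamycin-resistance gene on pET-22b(+). Six replicate transformations grew overnight at 37°C or 30°C on LB agar with or without 25 μg/mL kanamycin, also containing 100 μg/mL carbenicillin, 50 μM IPTG and 0.2% rhamnose, and pooled colonies were amplicon-sequenced on an Illumina HiSeq 2500.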

| Sequence | self-splicing fitness (ln) (30 °C) | self-splicing fitness (ln) (37 °C) |
| --- | --- | --- |
| UUGAAGCAAUAUUACGAAGU | -3.34 ± 0.19 | -1.69 ± 0.21 |
| CCAUAGCAAUAUUACGUUGC | -4.15 ± 0.22 | -2.52 ± 0.23 |
| UUGUAGCAAUAUUACGGAUC | -3.53 ± 0.3 | -2.48 ± 0.26 |
| CCAAAGCAAUAUUACGUCCU | -4.59 ± 0.31 | -2.33 ± 0.21 |
| UCGAAGCAAUAUUACGGCCA | -1.64 ± 0.16 | 0.195 ± 0.14 |
| ACAUAGCAAUAUUACGCCAC | -3.57 ± 0.27 | -0.959 ± 0.17 |
| CGCGAGCAAUAUUACGACCC | -0.487 ± 0.44 | – |
| UACUAGCAAUAUUACGAAAU | – | -3.34 ± 0.4 |
| AGCGAGCAAUAUUACGAGUC | -3.91 ± 0.42 | -2.24 ± 0.24 |
| UCCCAGCAAUAUUACGCCUU | -3.44 ± 0.2 | -1.28 ± 0.15 |
| GGGCAGCAAUAUUACGAUAA | -2.67 ± 0.21 | -1.75 ± 0.18 |
| UACCAGCAAUAUUACGCCUU | -0.707 ± 0.066 | -0.62 ± 0.074 |
| GUGCAGCAAUAUUACGCAUA | -1.7 ± 0.18 | -0.534 ± 0.14 |
| GGUGAGCAAUAUUACGCACA | -1.07 ± 0.15 | -0.679 ± 0.17 |
| AAGGAGCAAUAUUACGUAUG | -3.31 ± 0.34 | -3.58 ± 0.33 |
| CCGGAGCAAUAUUACGGAGU | -3.65 ± 0.2 | -3.41 ± 0.24 |
| UACGAGCAAUAUUACGUAAG | -3.58 ± 0.2 | -2.33 ± 0.19 |
| GUCCAGCAAUAUUACGGUCA | -0.244 ± 0.07 | -0.0837 ± 0.072 |
| AUAAAGCAAUAUUACGCAGG | -1.32 ± 0.098 | -0.913 ± 0.14 |
| GGUAAGCAAUAUUACGUUUU | -2.02 ± 0.12 | -0.929 ± 0.14 |
| GCUCAGCAAUAUUACGUCAC | -3.37 ± 0.22 | -2.06 ± 0.22 |
| UGGAAGCAAUAUUACGUAUA | -2.2 ± 0.26 | -1.27 ± 0.2 |
| CCCCAGCAAUAUUACGCACC | -2.46 ± 0.18 | -2.32 ± 0.24 |
| ACUUAGCAAUAUUACGAUAC | -3.82 ± 0.42 | -2.28 ± 0.26 |
| ACAUAGCAAUAUUACGAAAC | -3.95 ± 0.26 | -2.45 ± 0.33 |

| Sequence | self-splicing fitness (ln) (30 °C) | self-splicing fitness (ln) (37 °C) |
| --- | --- | --- |
| UGUCAGCAAUAUUACGUGUA | -0.648 ± 0.056 | 0.127 ± 0.074 |
| AGUGAGCAAUAUUACGAAAC | -2.97 ± 0.38 | -1.2 ± 0.33 |
| CGGGAGCAAUAUUACGUAAA | -2.94 ± 0.34 | – |
| GAGCAGCAAUAUUACGGAGA | -4.02 ± 0.25 | -2.16 ± 0.16 |
| ACCCAGCAAUAUUACGGUUU | -0.863 ± 0.041 | 0.0681 ± 0.056 |
| AUUUAGCAAUAUUACGACUG | -2 ± 0.17 | -1.41 ± 0.16 |
| UAAAAGCAAUAUUACGGGAU | -3.01 ± 0.27 | -2.23 ± 0.18 |
| UUUUAGCAAUAUUACGUCAA | -2.59 ± 0.17 | -1.34 ± 0.13 |
| GGAAAGCAAUAUUACGAUGG | -3.14 ± 0.22 | -2.39 ± 0.21 |
| UCCUAGCAAUAUUACGCACA | -2.29 ± 0.22 | -1.45 ± 0.21 |
| UGUUAGCAAUAUUACGGUAA | -1.05 ± 0.1 | -0.0801 ± 0.097 |
| UGCAAGCAAUAUUACGUUGA | -2.47 ± 0.1 | -1.32 ± 0.11 |
| AACGAGCAAUAUUACGGGUA | -2.96 ± 0.17 | -0.912 ± 0.11 |
| GCCAAGCAAUAUUACGGGGU | -4.5 ± 0.18 | -2.55 ± 0.14 |
| ACUGAGCAAUAUUACGUCCU | -2.07 ± 0.11 | -0.865 ± 0.12 |
| AAUUAGCAAUAUUACGGCAA | -0.926 ± 0.14 | -0.497 ± 0.18 |
| CGAGAGCAAUAUUACGGAGU | -4.55 ± 0.42 | -1.6 ± 0.2 |
| CCAGAGCAAUAUUACGGUCC | -3.93 ± 0.33 | -1.51 ± 0.34 |
| UACAAGCAAUAUUACGGAAC | -3.75 ± 0.27 | -2.28 ± 0.25 |
| AUCGAGCAAUAUUACGGCAC | -3.16 ± 0.15 | -1.87 ± 0.16 |
| UUAUAGCAAUAUUACGUAAG | -1.38 ± 0.08 | -0.386 ± 0.11 |
| ACUAAGCAAUAUUACGACCA | -0.124 ± 0.23 | 0.571 ± 0.2 |
| CUGCAGCAAUAUUACGGAAA | -2.27 ± 0.21 | -1.56 ± 0.38 |
| UUCAAGCAAUAUUACGCUAU | -2.4 ± 0.15 | -1.63 ± 0.16 |
| CCAAAGCAAUAUUACGAAAA | -1.93 ± 0.17 | -2.85 ± 0.32 |

| Sequence | self-splicing fitness (ln) (30 °C) | self-splicing fitness (ln) (37 °C) |
| --- | --- | --- |
| AUAGAGCAAUAUUACGCUAU | -2.49 ± 0.18 | -2.34 ± 0.3 |
| CCAUAGCAAUAUUACGGAAG | -3.19 ± 0.16 | -1.67 ± 0.14 |
| UAGAAGCAAUAUUACGCAAU | -2.51 ± 0.16 | -1.04 ± 0.24 |
| GACUAGCAAUAUUACGAGCU | -1.61 ± 0.13 | -0.918 ± 0.093 |
| GAUGAGCAAUAUUACGGGAC | – | -3.23 ± 0.4 |
| UUGAAGCAAUAUUACGCAAC | -1.97 ± 0.25 | -2.43 ± 0.39 |
| UCCAAGCAAUAUUACGCAAC | -4.2 ± 0.37 | -3.04 ± 0.31 |
| CAUGAGCAAUAUUACGCUCU | -3.71 ± 0.49 | -2.82 ± 0.31 |
| CACUAGCAAUAUUACGUUCG | 0.203 ± 0.084 | 0.725 ± 0.11 |
| UAAAAGCAAUAUUACGUCGG | -0.992 ± 0.097 | -0.876 ± 0.12 |
| GACAAGCAAUAUUACGGUGA | -1.3 ± 0.065 | -0.86 ± 0.086 |
| AUUGAGCAAUAUUACGGCCG | -3.13 ± 0.26 | -0.636 ± 0.18 |
| UAAGAGCAAUAUUACGAGAG | -2.23 ± 0.38 | -1.95 ± 0.36 |
| CCCCAGCAAUAUUACGACAA | – | -2.78 ± 0.28 |
| CCGUAGCAAUAUUACGCACA | -3.79 ± 0.31 | -1.44 ± 0.36 |
| UCAGAGCAAUAUUACGGGGG | -2.66 ± 0.23 | -3.15 ± 0.35 |
| UGCUAGCAAUAUUACGUAGG | -2.18 ± 0.14 | -0.778 ± 0.2 |
| GUCCAGCAAUAUUACGGGUU | -1.58 ± 0.07 | -1.03 ± 0.073 |
| AUGGAGCAAUAUUACGCAUG | -2.5 ± 0.34 | -2.36 ± 0.25 |
| CAAGAGCAAUAUUACGCGAU | -2.62 ± 0.22 | -2.51 ± 0.49 |
| GCGCAGCAAUAUUACGUAGA | -2.28 ± 0.1 | -0.72 ± 0.099 |
| GUACAGCAAUAUUACGUCUA | -1.11 ± 0.091 | -0.268 ± 0.081 |
| GUAAAGCAAUAUUACGGCGU | -0.369 ± 0.069 | 0.409 ± 0.11 |
| GGGCAGCAAUAUUACGCAUG | -1.36 ± 0.1 | -0.482 ± 0.12 |
| AUUUAGCAAUAUUACGGCGA | -0.579 ± 0.12 | 0.144 ± 0.11 |

| Sequence | self-splicing fitness (ln) (30 °C) | self-splicing fitness (ln) (37 °C) |
| --- | --- | --- |
| GGGUAGCAAUAUUACGUAGA | -1.89 ± 0.17 | -0.619 ± 0.15 |
| AACCAGCAAUAUUACGCGGU | -4.38 ± 0.19 | -2.43 ± 0.15 |
| GCCUAGCAAUAUUACGCAUU | -0.686 ± 0.051 | -0.35 ± 0.062 |
| GCAAAGCAAUAUUACGAUAA | -1.48 ± 0.086 | -1.14 ± 0.1 |
| UCGUAGCAAUAUUACGUUCG | -1.45 ± 0.071 | -0.735 ± 0.086 |
| GCAUAGCAAUAUUACGACGU | -0.0199 ± 0.12 | 0.152 ± 0.12 |
| AAACAGCAAUAUUACGAUAG | -2.76 ± 0.1 | -2.14 ± 0.12 |
| UAGAAGCAAUAUUACGACAG | -0.764 ± 0.12 | -0.152 ± 0.14 |
| UCUAAGCAAUAUUACGGUUG | -2.82 ± 0.15 | -2.61 ± 0.18 |
| GCUGAGCAAUAUUACGUACA | -2.45 ± 0.24 | -2.88 ± 0.28 |
| CGUGAGCAAUAUUACGGCUU | -3.31 ± 0.18 | -3.81 ± 0.33 |
| GUAAAGCAAUAUUACGACAG | -2.12 ± 0.17 | -2.22 ± 0.25 |
| AUCUAGCAAUAUUACGGGAA | -0.643 ± 0.13 | -0.903 ± 0.14 |
| UAACAGCAAUAUUACGUACA | -0.576 ± 0.071 | -0.319 ± 0.092 |
| CAGCAGCAAUAUUACGCAGU | -3.81 ± 0.18 | -3.35 ± 0.22 |
| CCGUAGCAAUAUUACGUGCU | – | -1.98 ± 0.19 |
| UUGAAGCAAUAUUACGAUGC | -4.76 ± 0.39 | -1.58 ± 0.24 |
| ACUCAGCAAUAUUACGCACG | -1 ± 0.078 | -0.784 ± 0.13 |
| AUACAGCAAUAUUACGCAGG | -2.78 ± 0.14 | -0.332 ± 0.11 |
| CGUGAGCAAUAUUACGUUAG | -2.02 ± 0.081 | -1 ± 0.094 |
| GUACAGCAAUAUUACGGUCG | -1.36 ± 0.058 | -0.547 ± 0.084 |
| CACCAGCAAUAUUACGCACA | -1.23 ± 0.16 | -0.504 ± 0.14 |
